# According to paper doi:10.1101/2024.12.16.628640:
# Experiments:
# [1] = biological target: D-glucose isomerase (D-xylose isomerase, XylA) of Xanthomonas campestris, His-tagged (Xanthomonas campestris); assay: SEC
# [2] = biological target: D-glucose isomerase (XylA) of Xanthomonas campestris with the exchange W147S, His-tagged (Xanthomonas campestris); assay: SEC
substance,measurement,setting,value
"D-glucose isomerase (D-xylose isomerase, XylA) of Xanthomonas campestris, His-tagged (enzyme)",stoichiometry N,[1],2
"D-glucose isomerase (XylA) of Xanthomonas campestris with the exchange W147S, His-tagged (enzyme)",stoichiometry N,[2],2
